The results in this text go back to patent publication US20210130494A1 (ALETA BIOTHERAPEUTICS, published 2021).

Assay [1] concerns the target T1, Human BCMA Protein, Fc Tag (R&D Systems, Cat#193-BC-050) (human, UniProt Q02223 1-54).
T1 construct: Bought reagent; also called Human BCMA-Fc; BCMA-Fc
T1 sequence (looked up): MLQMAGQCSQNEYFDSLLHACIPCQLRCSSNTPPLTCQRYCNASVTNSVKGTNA
Put plainly: ELISA, plate-bound Human BCMA-Fc (FIG. 66A), anti-HIS-HRP.

The target in assay [2] is T2, CD20 on stable transfectant line 293-CD20 (UniProt P11836 1-297).
T2 construct: whole, on cells; also called CD20 expressing 293 cells
T2 sequence (looked up): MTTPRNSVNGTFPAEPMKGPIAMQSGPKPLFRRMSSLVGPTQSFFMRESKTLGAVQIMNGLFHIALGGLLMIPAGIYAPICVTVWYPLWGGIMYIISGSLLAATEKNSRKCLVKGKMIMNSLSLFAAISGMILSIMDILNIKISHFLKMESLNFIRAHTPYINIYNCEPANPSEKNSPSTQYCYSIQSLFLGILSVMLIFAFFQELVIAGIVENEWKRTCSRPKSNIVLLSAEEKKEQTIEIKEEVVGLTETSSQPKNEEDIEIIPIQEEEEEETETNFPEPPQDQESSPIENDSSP
Put plainly: flow cytometry, 293-CD20 cells, FMC63-PE.

The target in assay [3] is T2, CD20 on stable transfectant line …. Put plainly: flow cytometry, 293-CD20 cells, 200 µl fusion protein, FMC63-PE. (A flow cytometer gives signals particle by particle.)
In assay [4] the target is T3, FMC63 CAR-Flag (construct #140) on transfected 293T cells.
T3 construct: FMC63 VL-VH-Flag-CD28 linker/transmembrane/ICD-4-1BB ICD-CD3z ICD; also called anti-CD19 FMC63 CAR; CAR19
T3 sequence (chain, as listed by the source limits assumed): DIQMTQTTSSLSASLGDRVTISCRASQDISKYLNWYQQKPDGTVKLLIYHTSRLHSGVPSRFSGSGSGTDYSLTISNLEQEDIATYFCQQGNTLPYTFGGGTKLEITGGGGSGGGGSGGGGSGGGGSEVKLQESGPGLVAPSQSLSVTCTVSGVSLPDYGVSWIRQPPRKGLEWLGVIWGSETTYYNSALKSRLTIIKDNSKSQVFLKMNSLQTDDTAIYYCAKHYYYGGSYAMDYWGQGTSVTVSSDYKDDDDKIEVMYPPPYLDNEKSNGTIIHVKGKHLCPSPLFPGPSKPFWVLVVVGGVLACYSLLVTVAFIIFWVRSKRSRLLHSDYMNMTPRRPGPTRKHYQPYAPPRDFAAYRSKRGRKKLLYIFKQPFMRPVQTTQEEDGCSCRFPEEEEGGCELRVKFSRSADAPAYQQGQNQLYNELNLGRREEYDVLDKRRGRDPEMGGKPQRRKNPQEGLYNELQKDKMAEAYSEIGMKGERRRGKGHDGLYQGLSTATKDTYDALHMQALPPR
Put plainly: flow cytometry, 293T cells transfected with #140, supernatant or 5 ug/ml purified #151/#152, anti-mouse Fc gamma-PE.

Assay [5] addresses T2, CD20 on stable transfectant line …. Put plainly: flow cytometry, 293-CD20 cells, FMC63-PE or anti-HIS-PE.

B1: CD19-D1+2-C11D5.3 scFv (VH/VL) (construct #92) (other)
chain: PEEPLVVKVEEGDNAVLQCLKGTSDGPTQQLTWSRESPLKPFLKLSLGLPGLGIHMRPLAIWLFIFNVSQQMGGFYLCQPGPPSEKAWQPGWTVNVEGSGELFRWNVSDLGGLGCGLKNRSSEGPSSPSGKLMSPKLYVWAKDRPEIWEGEPPCLPPRDSLNQSLSQDLTMAPGSTLWLSCGVPPDSVSRGPLSWTHVHPKGPKSLLSLELKDDRPARDMWVMETGLLLPRATAQDAGKYYCHRGNLTMSFHLEITARPGGGGSGGGGSGGGGSGGGGSQIQLVQSGPELKKPGETVKISCKASGYTFTDYSINWVKRAPGKGLKWMGWINTETREPAYAYDFRGRFAFSLETSASTAYLQINNLKYEDTATYFCALDYSYAMDYWGQGTSVTVSSGSTSGSGKPGSGEGSTKGDIVLTQSPPSLAMSLGKRATISCRASESVTILGSHLIHWYQQKPGQPPTLLIQLASNVQTGVPARFSGSGSRTDFTLTIDPVEEDDVAVYYCLQSRTIPRTFGGGTKLEIKGGGGSGGGGSGGGGSHHHHHH
notes: C-terminal His tag
As to B1, the binding result in assay [1] is on record as “binds”.

B2: CD19-D1+2-Leu16 scFv (VL/VH) (construct #85) (other)
chain: PEEPLVVKVEEGDNAVLQCLKGTSDGPTQQLTWSRESPLKPFLKLSLGLPGLGIHMRPLAIWLFIFNVSQQMGGFYLCQPGPPSEKAWQPGWTVNVEGSGELFRWNVSDLGGLGCGLKNRSSEGPSSPSGKLMSPKLYVWAKDRPEIWEGEPPCLPPRDSLNQSLSQDLTMAPGSTLWLSCGVPPDSVSRGPLSWTHVHPKGPKSLLSLELKDDRPARDMWVMETGLLLPRATAQDAGKYYCHRGNLTMSFHLEITARPGGGGSGGGGSGGGGSGGGGSDIELTQSPTILSASPGEKVTMTCRASSSVNYMDWYQKKPGSSPKPWIYATSNLASGVPARFSGSGSGTSYSLTISRVEAEDAATYYCQQWSFNPPTFGGGTKLEIKRGGGGSGGGGSGGGGSMAQVKLQESGAELVKPGASVKMSCKASGYTFTSYNMHWVKQTPGQGLEWIGAIYPGNGDTSYNQKFKGKATLTADKSSSTAYMQLSSLTSEDSADYYCARSNYYGSSYWFFDVWGQGTTVTVSSAAAHHHHHH
notes: C-terminal His tag
Take B2: in assay [2], the binding result is on record as “no binding (tested: 200 µl)”.

B3: CD19-ECD-Leu16 scFv (VH/VL) (construct #63) (other)
chain: PEEPLVVKVEEGDNAVLQCLKGTSDGPTQQLTWSRESPLKPFLKLSLGLPGLGIHMRPLAIWLFIFNVSQQMGGFYLCQPGPPSEKAWQPGWTVNVEGSGELFRWNVSDLGGLGCGLKNRSSEGPSSPSGKLMSPKLYVWAKDRPEIWEGEPPCLPPRDSLNQSLSQDLTMAPGSTLWLSCGVPPDSVSRGPLSWTHVHPKGPKSLLSLELKDDRPARDMWVMETGLLLPRATAQDAGKYYCHRGNLTMSFHLEITARPVLWHWLLRTGGWKGGGGSGGGGSGGGGSGGGGSEVQLQQSGAELVKPGASVKMSCKASGYTFTSYNMHWVKQTPGQGLEWIGAIYPGNGDTSYNQKFKGKATLTADKSSSTAYMQLSSLTSEDSADYYCARSNYYGSSYWFFDVWGAGTTVTVSSGSTSGGGSGGGSGGGGSSDIVLTQSPAILSASPGEKVTMTCRASSSVNYMDWYQKKPGSSPKPWIYATSNLASGVPARFSGSGSGTSYSLTISRVEAEDAATYYCQQWSFNPPTFGGGTKLEIKHHHHHH
notes: C-terminal His tag; also called CD19 full-length extracellular domain-anti-CD20 Leu16 scFv VH-VL-His fusion protein
As to B3, the binding result in assay [3] was “binds”.

B4: CD19-D1+2-C11D5.3 scFv (VL/VH) (construct #91) (other)
chain: PEEPLVVKVEEGDNAVLQCLKGTSDGPTQQLTWSRESPLKPFLKLSLGLPGLGIHMRPLAIWLFIFNVSQQMGGFYLCQPGPPSEKAWQPGWTVNVEGSGELFRWNVSDLGGLGCGLKNRSSEGPSSPSGKLMSPKLYVWAKDRPEIWEGEPPCLPPRDSLNQSLSQDLTMAPGSTLWLSCGVPPDSVSRGPLSWTHVHPKGPKSLLSLELKDDRPARDMWVMETGLLLPRATAQDAGKYYCHRGNLTMSFHLEITARPGGGGSGGGGSGGGGSGGGGSDIVLTQSPPSLAMSLGKRATISCRASESVTILGSHLIHWYQQKPGQPPTLLIQLASNVQTGVPARFSGSGSRTDFTLTIDPVEEDDVAVYYCLQSRTIPRTFGGGTKLEIKGSTSGSGKPGSGEGSTKGQIQLVQSGPELKKPGETVKISCKASGYTFTDYSINWVKRAPGKGLKWMGWINTETREPAYAYDFRGRFAFSLETSASTAYLQINNLKYEDTATYFCALDYSYAMDYWGQGTSVTVSSGGGGSGGGGSGGGGSHHHHHH
notes: C-terminal His tag
For the molecule B4, the binding result in assay [1] was “binds”.

B5: C11D5.3 scFv (VH/VL) (construct #90) (scFv)
scFv: QIQLVQSGPELKKPGETVKISCKASGYTFTDYSINWVKRAPGKGLKWMGWINTETREPAYAYDFRGRFAFSLETSASTAYLQINNLKYEDTATYFCALDYSYAMDYWGQGTSVTVSSGSTSGSGKPGSGEGSTKGDIVLTQSPPSLAMSLGKRATISCRASESVTILGSHLIHWYQQKPGQPPTLLIQLASNVQTGVPARFSGSGSRTDFTLTIDPVEEDDVAVYYCLQSRTIPRTFGGGTKLEIKGGGGSGGGGSGGGGSHHHHHH
notes: C-terminal His tag
Take B5: the binding result in assay [1] is listed as “binds”.

B6: anti-FMC63 antibody 136.20.1 (constructs #151/#152) (antibody, V domains shown)
VH: EVKLVESGGGLVQPGGSLKLSCAASGFDFSRYWMSWVRQAPGKGLEWIGEINLDSSTINYTPSLKDKFIISRDNAKNTLYLQMSKVRSEDTALYYCARRYDAMDYWGQGTSVTVSS
VL: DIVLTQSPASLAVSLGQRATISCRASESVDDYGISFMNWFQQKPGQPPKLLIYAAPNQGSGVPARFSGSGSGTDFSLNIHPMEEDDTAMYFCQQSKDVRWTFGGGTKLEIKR
notes: supernatant or purified protein (5 ug/ml); also called anti-FMC63 (anti-Id) antibody; secreted anti-FMC63 antibody
As to B6, in assay [4], the binding result is “binds”.

B7: C11D5.3 scFv (VL/VH) (construct #89) (scFv)
scFv: DIVLTQSPPSLAMSLGKRATISCRASESVTILGSHLIHWYQQKPGQPPTLLIQLASNVQTGVPARFSGSGSRTDFTLTIDPVEEDDVAVYYCLQSRTIPRTFGGGTKLEIKGSTSGSGKPGSGEGSTKGQIQLVQSGPELKKPGETVKISCKASGYTFTDYSINWVKRAPGKGLKWMGWINTETREPAYAYDFRGRFAFSLETSASTAYLQINNLKYEDTATYFCALDYSYAMDYWGQGTSVTVSSGGGGSGGGGSGGGGSHHHHHH
notes: C-terminal His tag
As for B7, the binding result in assay [1] is reported as “binds”.

B8: CD19-D1+2-Leu16 scFv (VH/VL) (construct #83) (other)
chain: PEEPLVVKVEEGDNAVLQCLKGTSDGPTQQLTWSRESPLKPFLKLSLGLPGLGIHMRPLAIWLFIFNVSQQMGGFYLCQPGPPSEKAWQPGWTVNVEGSGELFRWNVSDLGGLGCGLKNRSSEGPSSPSGKLMSPKLYVWAKDRPEIWEGEPPCLPPRDSLNQSLSQDLTMAPGSTLWLSCGVPPDSVSRGPLSWTHVHPKGPKSLLSLELKDDRPARDMWVMETGLLLPRATAQDAGKYYCHRGNLTMSFHLEITARPGGGGSGGGGSGGGGSGGGGSMAQVKLQESGAELVKPGASVKMSCKASGYTFTSYNMHWVKQTPGQGLEWIGAIYPGNGDTSYNQKFKGKATLTADKSSSTAYMQLSSLTSEDSADYYCARSNYYGSSYWFFDVWGQGTTVTVSSGGGGSGGGGSGGGGSDIELTQSPTILSASPGEKVTMTCRASSSVNYMDWYQKKPGSSPKPWIYATSNLASGVPARFSGSGSGTSYSLTISRVEAEDAATYYCQQWSFNPPTFGGGTKLEIKRAAAHHHHHH
notes: C-terminal His tag
Take B8: the binding result in assay [5] was “binds”.
